Results taken from patent US20240043506A1 (GARVAN INSTITUTE OF MEDICAL RESEARCH, published 2024).
Changes are numbered by the printed parent chain. In names and notes the source's numbering stands.

B1: C12K-D12 (antibody, V domains shown)
VH: EVQLLESGGGLVQPGGSLRLSCAASGFRISDEDMGWVRQAPGKGLEWVSYIDNAGASTYYADSVKGRFTISRDNSKNTLYLQMNSLRAEDTAVYYCAKSLGPNPEFDYWGQGTLVTVSS
VL: DIQMTQSPSSLSASVGDRVTITCRASQSISSYLNWYQQKPGKAPKLLIYYASNLQSGVPSRFSGSGSGTDFTLTISSLQPEDFATYYCQQGLGMPITFGQGTKVEIK
B2: C12K-G10 (antibody, V domains shown)
VH: B1 VH with G101N, P102S, N103L, P104G, E105V
VL: B1 VL with S30Y, S31D, N53A
B3: G1K-C4 (antibody, V domains shown)
VH: EVQLLESGGGLVQPGGSLRLSCAASGFRFDYEDMGWVRQAPGKGLEWVSSIDSHGASTYYADSVKGRFTISRDNSKNTLYLQMNSLRAEDTAVYYCAKYSHSVSYGPFDYWGQGTLVTVSS
VL: B1 VL with S28Y, S31Y, Y32D, Y50S, N53S, G91T, L92N, G93T, M94Y, I96Q

Assays:
[1] = biological target: T1, SARS-CoV-2 S protein RBD (residues 319-541 of the S protein), soluble, with C-terminal Avitag and His tag (SARS-CoV-2, UniProt P0DTC2 319-541); test: biolayer interferometry (BLItz), […]
[2] = biological target: T1, SARS-CoV-2 S protein RBD (residues …); test: biolayer interferometry (BLItz), […], global fit

Binder	Kd [1]	Kd [2]
B1	1 nM	
B2	0.788 nM	
B3		59 nM
